Test results as given in patent US20230220073A1 (UCL BUSINESS, published 2023).

B1: Clone A chimeric ROR1 antibody (antibody, V domains shown)
VH: QVQLQQSGTELVKPASSVRISCKASGYTLTTNYMHWIRQQPGNGLEWIGWIYPGNGNTKFNHKFDGRTTLTADKSSSIVYMQLSSLTSEDSAVYFCARSDFDYWGQGVMVTVSS
VL: DIQMTQSPSSMSASLGDRVTFTCQASQDIGNNLIWFQQKPGKSPRPLMYFATSLANGVPSRFSGSRSGSDYSLTISSLESEDLADYHCLQYREYPLTFGSGTKLDLK
notes: also called SA1
B2: Clone F chimeric ROR1 antibody (antibody, V domains shown)
VH: EVQLVESGGGLVQPGRSLKLSCAASGFIFSEHNMAWVRQAPKKGLEWVATISDDGRNTYYRDSMRGRFTISRENARSTLYLQLDSLRSEDTATYYCASHRYNLFDSWGQGVMVTVSS
VL: DIQMTQSPSFLSASVGDRVTINCKASQNIDRYLNWYQQKLGEAPKRLLYNTNKLQTGIPSRFSGSGSATDFTLTISSLQPEDFATYFCLQYNSLPLTFGSGTKLEIK

Assays:
[1] = target: T1, ROR1 Ig-like domain with NISSE at residues 47 to 51 replaced by FQDDL, on transduced SUP-T1 cells (human, UniProt Q01973 30-147, limits assumed); assay: flow cytometry on SUP-T1 cells transduced with mutated ROR1 Ig-like domain
T1 construct: domain: Ig-like; also called five amino acid substitution
T1 sequence (Q01973 other isoform, or with tags, fused parts or gaps limits assumed): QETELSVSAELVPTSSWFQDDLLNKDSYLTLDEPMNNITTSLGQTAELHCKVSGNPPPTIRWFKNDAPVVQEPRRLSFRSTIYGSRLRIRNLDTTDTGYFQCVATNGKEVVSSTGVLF

[2] = target: T2, Histidine-tagged ROR1 protein (extracellular region) (UniProt Q01973 30-406); assay: SPR, Biacore X100; antibody captured by anti-human IgG1 on CM5 chip, His-tagged ROR1 extracellular portion injected at 1.5-100 nM
T2 construct: extracellular domain; also called extracellular portion of ROR1 bearing a Histidine tag; not shown: Histidine tag
T2 sequence (Q01973 30-406): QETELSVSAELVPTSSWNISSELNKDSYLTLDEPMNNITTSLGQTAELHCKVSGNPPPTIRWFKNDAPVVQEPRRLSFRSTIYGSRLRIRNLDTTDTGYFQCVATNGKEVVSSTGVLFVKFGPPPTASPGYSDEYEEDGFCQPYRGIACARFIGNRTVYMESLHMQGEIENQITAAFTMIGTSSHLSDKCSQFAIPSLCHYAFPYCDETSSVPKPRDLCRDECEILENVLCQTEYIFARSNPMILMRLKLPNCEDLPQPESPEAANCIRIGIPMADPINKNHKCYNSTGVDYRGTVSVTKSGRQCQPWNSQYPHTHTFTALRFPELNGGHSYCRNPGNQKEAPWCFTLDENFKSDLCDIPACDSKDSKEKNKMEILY
Method: FIG. 3: KD determination by surface plasmon resonance. Sensorgrams obtained using a Biacore X100 instrument are shown. Briefly, ROR1 antibodies were immobilized using a CM5 chip and seven different concentrations of the Histidine-tagged ROR1 protein (extracellular region) were injected. Concentrations ranged from […].
We undertook surface plasmon resonance evaluation using a Biacore X100 instrument. ROR1 chimeric antibodies were immobilised using an anti-human IgG1 antibody capture kit and a CM5 sensor chip. Seven different concentrations, ranging from 1.5-100 nM, of the extracellular portion of ROR1 bearing a Histidine tag were then injected.

I(48)Q mutation = target: T3, I(48)Q mutation (human, UniProt Q01973); assay: flow cytometry, I(48)Q-transduced cells (eGFP), DyLight647
T3 construct: The text speaks of the Ig-like domain; the axis on sheet D00010 reads ROR1 Ig-like+Fz+Kg; also called ROR1 with I(48)Q in the Ig-like domain, on transduced SUP-T1 cells
T3 sequence (Q01973 other isoform, or with tags, fused parts or gaps limits assumed): as the sequence (Q01973 30-406) above, with I19Q counted along it
Method: FIG. 5A-FIG. 5H: Epitope mapping of ROR1 clone A MAb. FIG. 5A-FIG. 5B: Reactivity of clone A with ROR1-derived overlapping peptides was analyzed by ELISA. FIG. 5C-FIG. 5H: Amino acid substitution within the epitope binding region was performed in ROR1-transduced cell lines. Also, the previously described clones R12, 4a5 and D10 were also included for comparison. Red circles indicate essential amino acids for antibody binding. One out of three experiments is shown. Experiments were done in triplicates. Error bars represent SD.
(§1) Retroviral vectors were used for transducing SUP-T1 cells and transduction was tested by GFP expression using flow cytometry.

[3] = target: T4, ROR1 Frizzled domain alone, on transduced SUP-T1 cells (human, UniProt Q01973 165-299); assay: flow cytometry, transduced SUP-T1 cells, anti-human Fc-Dylight647
T4 construct: domain: Fz; also called Fz; ROR1-Fz domain
T4 sequence (Q01973 165-299): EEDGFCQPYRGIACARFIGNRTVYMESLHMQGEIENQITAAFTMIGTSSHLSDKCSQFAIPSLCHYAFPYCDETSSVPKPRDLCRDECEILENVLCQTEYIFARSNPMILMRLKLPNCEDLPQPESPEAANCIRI
Method: (§2) FIG. 1A-FIG. 1C: Identification of ROR1 binding domain: FIG. 1A: SUP-T1 cells were transduced with retroviral vectors containing either the full extracellular portion of ROR1 or only one or two extracellular domains. Non-transduced SUP-T1 (SUP-T1 NT) cells served as negative control. FIG. 1B: All 12 chimeric antibodies and FIG. 1C all 10 positive clones in scFv format were incubated with SUP-T1 NT and the new stable cell lines at 4° C. for 30 min. Cells were washed and stained with a secondary antibody (anti-human Fc-Dylight647), which was used as negative control. eROR1=extracellular ROR1, Ig-like=Immunoglobulin-like domain, Fz=Frizzled domain, Kg=Kringle domain.

Kringle (Kg) = target: T5, Kringle (Kg) (human, UniProt Q01973); assay: as above
T5 construct: also called ROR1 Kringle domain alone, on transduced SUP-T1 cells
T5 sequence (Q01973 312-391 limits assumed): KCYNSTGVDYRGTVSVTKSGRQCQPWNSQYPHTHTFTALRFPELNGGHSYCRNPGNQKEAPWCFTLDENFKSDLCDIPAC
Method: as §2

Fz+Kg = target: T6, Fz+Kg (human, UniProt Q01973); assay: as above
T6 construct: also called ROR1 Frizzled+Kringle domains, on transduced SUP-T1 cells
T6 sequence (Q01973 165-391 limits assumed): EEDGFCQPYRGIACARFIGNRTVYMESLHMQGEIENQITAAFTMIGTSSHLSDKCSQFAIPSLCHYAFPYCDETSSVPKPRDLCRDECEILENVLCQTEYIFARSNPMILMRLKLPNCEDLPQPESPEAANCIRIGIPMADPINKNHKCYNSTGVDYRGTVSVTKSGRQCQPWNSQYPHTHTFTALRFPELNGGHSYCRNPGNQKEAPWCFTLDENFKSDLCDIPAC
Method: as §2

Q(261)H mutation = Q(261)H mutation (human, UniProt Q01973); assay: flow cytometry, Q(261)H-transduced SUP-T1 cells (eGFP), DyLight647
Chain of Q(261)H mutation (Q01973 165-299 Q261H limits assumed): as the sequence (Q01973 165-299) above, with Q97H counted along it
Method: FIG. 6A-FIG. 6D: Epitope mapping of ROR1 clone F MAb. FIG. 6A-FIG. 6B: Reactivity of clone F with ROR1-derived overlapping peptides was analyzed by ELISA. Since no linear epitope was identified, FIG. 6C-FIG. 6D: amino acid substitution of non-conserved regions within the Fz domain was performed in ROR1-Fz transduced cell lines. Circles indicate essential amino acids for antibody binding. One out of three experiments is shown. Experiments were done in triplicates. Error bars represent SD.
as §1

[4] = target: T7, ROR1 Fz domain with Q(261)H and I(254)V, on transduced SUP-T1 cells (human, UniProt Q01973 165-299); assay: flow cytometry on SUP-T1 cells transduced with mutated ROR1 Fz domain
T7 construct: domain: Fz
T7 sequence (Q01973 165-299 I254V/Q261H): as the sequence (Q01973 165-299) above, with I90V, Q97H counted along it

[5] = target: T8, ROR1 Ig-like domain alone, on transduced SUP-T1 cells (human, UniProt Q01973 30-147, limits assumed); assay: flow cytometry, transduced SUP-T1 cells, anti-human Fc-Dylight647
T8 construct: domain: Ig-like; also called immunoglobulin domain
T8 sequence (Q01973 30-147 limits assumed): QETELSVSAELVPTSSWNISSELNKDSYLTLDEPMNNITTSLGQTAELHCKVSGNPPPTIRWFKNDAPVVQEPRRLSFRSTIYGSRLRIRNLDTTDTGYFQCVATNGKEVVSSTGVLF
Method: as §2

[6] = target: T9, ROR1, full extracellular region, on transduced SUP-T1 cells (UniProt Q01973 30-406); assay: flow cytometry, ROR1-transduced cells, single staining; Q1 = ahFc+ only; amFc+ahFc alone Q1 0.060
T9 construct: extracellular domain; also called eROR1; extracellular ROR1
T9 sequence (Q01973 30-406): as the sequence (Q01973 30-406) above
Text: FIG. 7A-FIG. 7C: Competition assay by flow cytometry. Clone A (SA1) in murine IgG2a, k (mSA1) along with other ROR1 MAbs in human IgG1, k-including previously published 4a5, D10 and R12 clones—were used for staining ROR1-transduced cells. MAb staining was done as FIG. 7A-FIG. 7B: single agents or FIG. 7C: in combination with clone A (mSA1). Anti-human IgG (450) and anti-mouse IgG (DyLight649) were used as secondary antibodies. Combined staining using clones F and mSA1 acted as negative control for overlapping epitopes.
In FIG. 7C, three different columns are presented. Dot plots on the first column correspond to ROR1 binding assessed when SUP-T1 ROR1 cells were stained with clone A (SA1) (mIgG) in the first instance. After a washing step, cells were stained with a competitor antibody (hIgG), followed by another washing step. Both antibodies were then detected by a third staining step using the appropriate secondary antibodies. In the second column, a similar approach was taken when staining these cells, except that this time it was the antibody in hIgG1, k format the one used for the first staining step, followed by clone A (SA1) staining. On the third column, both antibodies were used at the same time.

| Binder | binding result [1] | Kd [2] [nM] | koff [2] [s⁻¹] | kon [2] [M⁻¹ s⁻¹] | binding result (I(48)Q mutation) | binding result [3] | binding result (Kringle (Kg)) | binding result (Fz+Kg) | binding result (Q(261)H mutation) | binding result [4] | binding result [5] | Q1 quadrant figure [6] |
| --- | --- | --- | --- | --- | --- | --- | --- | --- | --- | --- | --- | --- |
| B1 | no binding | 1.81 | 0.00104 | 577000 | no binding | no binding | no binding | no binding |  |  |  |  |
| B2 |  | 5.46 | 0.000836 | 153000 |  |  | no binding |  | no binding | no binding | no binding | 85 |
